Laboratory results from paper PMC11029812, “Liver-targeted polymeric prodrugs delivered subcutaneously improve tafenoquine therapeutic window for malaria radical cure” (Science Advances, 2024).

System: G6PD-deficient huRBCs
Assay: Hemotoxicity in humanized G6PD deficiency mouse model
Type: in vivo, human RBCs engrafted in NOD/SCID mice
Experimental: Following procedures as previously published ([46]), hemotoxicity studies using huRBC engraftments were conducted in mice.
Female (8 to 9 weeks) NOD.CB17-Prkdcscid/J [nonobese diabetic severe combined immunodeficient (NOD/SCID)] mice were purchased from The Jackson Laboratory (Bar Harbor, ME). The animals were housed in a cage maintained in a specific pathogen–free animal facility and were acclimated for 1 week in the facility before initiation of experimental procedures. Sterile food and water were provided ad libitum throughout the study as previously described ([64]). All animal studies were performed under IACUC-approved protocols and adhere to the principles stated in the Guide for the Care and Use of Laboratory Animals ([100]).
Polymer solutions for SC administration were prepared in DPBS at the final dosing concentrations. All drug concentrations were calculated per the free base molecular weights of TQ. The TQ parent compound was administered intragastrically via an intragastric feeder tube. Polymers and vehicle were administered SC in the right flank. TQ, pSVCTQ, and vehicle were given as a single dose on day 0. In this model, the TQ dose studied was 10 mg/kg; pSVCTQ was tested at doses of 2.5, 5.0, or 10 mg/kg TQ equivalent.
The percentage of huRBCs at the end of this period was analyzed by flow cytometry to evaluate glycophorin A (huRBCs) and Ter119 (mouse RBCs) circulating in peripheral blood. […] The G6PD-deficient huRBC NOD/SCID mice were dosed with pSVCTQ or parent drug prepared as described above, with three to four mice per group. On days 4 and 7 following dosing, huRBC levels were assessed again by flow cytometry (glycophorin^+Ter119^−), along with the percentage of murine reticulocytes (CD71^+Ter119) as an additional marker of hemolytic toxicity. Mice were euthanized on day 7 following initiation of treatment.
Microsoft Excel and GraphPad Prism were used throughout the PK analysis to process the data, calculate pharmacokinetic parameters, and yield statistical information. A linear regression model was produced using the least squares fitting method with 1/x^2 scaling for the assay calibrators. […] For the G6PD deficiency model, data analysis was performed using GraphPad Prism (GraphPad Software). […] An F test comparing the two dose-response curves was also run. For all other work, a combination of Microsoft Excel and GraphPad Prism was used.

p(GalNAc-MA-co-SVCTQ-MA) [pSVCTQ]
Dose resulting in 50% hemolysis (TD50) (curve fit of Fig. 4B, single dose, pSVCTQ SC, TQ oral, day 7): 11.2 mg/kg
Reduction of hemotoxicity compared to oral TQ (from median effective doses): greater than twofold
Median effective dose (dose that results in 50% huRBC loss by day 7 relative to vehicle control) (single dose day 0, pSVCTQ SC, TQ oral, A− G6PD-deficient donor): 11.4 mg/kg
